The source of these data is patent US9683238, “Vascular endothelial growth factor-binding aptamers” (National University Corporation Tokyo University of …).

Data set [1] concerns the target T1, VEGF165 (vascular endothelial growth factor 165) (Homo sapiens, UniProt P15692-4 P15692-4:27-191). Kind of data set: SPR; VEGF immobilized on CM5; TBS with 5 mM KCl, pH 7.4, 20 C. Particulars: tags: R&D Systems, expressed in Sf21 insect cells, chain copies: 2 (inferred, homodimer). On the procedure: (§1) The capacity of each oligonucleotide to bind to VEGF was evaluated using Biacore T200 (GE Healthcare Japan, Japan) by measuring SPR on a CM5 sensor chip. VEGF was dissolved in 10 mM acetate buffer (pH 6.0), and VEGF (about 1000 RU) was covalently bound to the CM5 sensor chip using an amine coupling kit. A non-labeled oligonucleotide (1 µM) was dissolved in Tris-buffered saline (TBS: 10 mM Tris-HCl, 100 mM NaCl, 5 mM KCl; pH 7.4), and the resulting solution was heated at 95° C. for 5 minutes, followed by allowing the solution to cool slowly. Under these conditions, each oligonucleotide is folded to form its specific secondary structure. Various concentrations of the oligonucleotide diluted with TBS was injected at a flow rate of 20 µl/minute at 20° C. onto the CM5 chip on which VEGF was immobilized. Binding between the immobilized VEGF and the oligonucleotide was monitored. By injecting NaCl (1 M), the CM5 chip was regenerated. Using Biacore evaluation software, the association rate and the dissociation rate were approximated to calculate the K_d value.
In general terms: Surface plasmon resonance follows binding to a sensor surface in real time, without labels.

Data set [2] has as its target T1, VEGF165 (vascular endothelial growth …). Kind of data set: SPR; no binding capacity; TBS, 20 C. The following applies: tags: R&D Systems, expressed in Sf21 insect cells; chain copies: 2 (inferred, homodimer); G4 predicted. On the procedure: as §1
Data set [3] has the same target. In words: SPR; VEGF immobilized on CM5; TBS (10 mM Tris-HCl, 100 mM NaCl, 5 mM KCl, pH 7.4), 20 C. Particulars: tags: R&D Systems, expressed in Sf21 insect cells; chain copies: 2 (inferred, homodimer).

T1 sequence (P15692 other isoform, or with tags, fused parts or gaps): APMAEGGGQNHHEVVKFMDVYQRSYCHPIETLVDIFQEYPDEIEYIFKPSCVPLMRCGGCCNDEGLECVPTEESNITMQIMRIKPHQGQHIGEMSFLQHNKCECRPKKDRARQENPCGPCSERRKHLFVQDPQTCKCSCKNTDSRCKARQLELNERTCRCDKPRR

As usually defined, the Kd is a measure of binding affinity in units of concentration. As for TGTGGGGGTGGACGGGCCGAGTACG (ssDNA) [3R03 (3R#03)], in data set [1] (G4 predicted), the Kd was 1.7 nM.

Regarding TGTGGGGGTGCGCGGGCCGGGCAGG (ssDNA) [2R#11], in data set [2], the binding result is given as “no binding”.

Regarding TGTGGGGGTGGTTGGGCGGGGCTGC (ssDNA) [3R09 (3R#09)], in data set [1] (G4 predicted), the Kd was 2.4 nM.

Regarding TGTGGGGGTGGACGGGCCGGGTAGA (ssDNA) [VEap121], in data set [1] (G4), the Kd worked out at 4.7 nM.

Turning to TGTGGGGTTGGACGGGCCGTGTAGA (ssDNA) [2R#10], the binding result in data set [2] is reported as “no binding”.

B1: 3R02 bivalent (ssDNA)
DNA: TGTGGGGGTGGACTGGGTGGGTACCTTTTTTTTTTTGTGGGGGTGGACTGGGTGGGTACC
Regarding B1, the Kd in data set [3] stood at 0.03 nM.

Regarding TGTGGGGGTGGACTGGGTGGGTACC (ssDNA) [3R02 (3R#02)], the Kd in data set [1] came to 0.3 nM.

For the molecule TGTGCGGGTGGCCGGGGTGGCCTGC (ssDNA) [3R#07], the binding result in data set [2] is listed as “no binding”.

On to TGTGGGGGAGGACGGGCGGGGATGC (ssDNA) [3R#01], for which, in data set [1] (G4 predicted), the Kd is 8.8 nM.

Turning to TGTGGGGCTGGGAGGTCGGGCCTGC (ssDNA) [3R#10], in data set [2], the binding result is “no binding”.

As for TGTGCGGGGGGTGGGGGTGGTTCCC (ssDNA) [3R#04], in data set [2], the binding result is listed as “no binding”.

Turning to TGTGGGGTTGGACGGACCGGGTAGG (ssDNA) [2R#08], the binding result in data set [2] is on record as “no binding”.

Regarding TGTGGGGGGGGTGGGGGTGGACCGC (ssDNA) [3R#06], the binding result in data set [2] is “no binding”.

Regarding TGTGGGGATGGATGGGCCGGGCTGC (ssDNA) [3R08 (3R#08)], the Kd in data set [1] (G4 predicted) was 1.5 nM.
